# Test results from US20120165265A1, “Calcium Signaling Modulators Involving STIM and ORAI Proteins” (priority 2009, published 2012).
# Entries after “also recorded” stand apart in the source; their conditions may differ.
# Experiments:
# endogenous CRAC channels = test: NFAT-luciferase assay in HEK 293T (NFAT-Luc) cells; type: cell-based; settings: HEK 293T NFAT-luc cells transfected with STIM1 construct; PMA (1 μM) alone; listed as D5
# Experimental: NFAT-luciferase Assays. HEK 293T cells were co-transfected with the indicated constructs and an NFAT reporter gene (firefly luciferase gene C-terminal to 4×-NFAT site from the IL-2 gene). Cotransfection with the Renilla luciferase (pRLTK) gene driven by the TK promoter was used to control for cell number and transfection efficiency. After 12-18 h, cells were treated with a control DMSO solution (mock), PMA (1 μM), or PMA plus TG (1 μM) for 8 h. Assays were performed using the Dual Luciferase Reporter assay system (Promega). For each condition, luciferase activity was measured with 4 samples taken from duplicate wells using a 96-well automated luminometer (Turner Biosystems). Results are represented as the ratio of firefly to Renilla luciferase activity.
# Identifying a Minimal Cytosolic Region of STIM1 that Opens the CRAC Channel. To identify the CRAC-activating domain of STIM1, we first tested a series of soluble cytosolic STIM1 fragments for their ability to activate an NFAT-dependent luciferase reporter gene (NFAT-luc). A series of constructs were generated by progressive truncation of the full-length cytosolic region of STIM1 (FIG. 2A; STIM1234-685; CT-STIM1) and were transiently expressed in a HEK 293T cell line containing NFAT-luc. […]
# Orai1 = Orai1 (Homo sapiens, UniProt Q96D31); test: Yeast split ubiquitin interaction assay, CAD with Orai1; type: binding; settings: NubG-Orai1 and CAD-Cub-LV in yeast
# Experimental: Split-Ubiquitin Yeast Two Hybrid Assay. Screening was performed according to the manufacturer's instructions (Dualsystems Biotech). Transformed yeast were selected on media lacking Trp and Leu (-TL). Interaction was observed by cell growth on plates lacking Trp, Leu, and His (TLH) in the presence of 3-aminotriazole (3-AT). Protein interactions were also assessed by measuring lacZ activity using the chromogenic substrate X-gal (5-bromo-4-chloro-3-indolyl-β-galactopyranoside).
# Split-Ubiquitin Yeast Two Hybrid Assay. To generate fusion proteins with the N-terminal half of ubiquitin (Nub), full-length or fragments of Orai1 were amplified by PCR and cloned into the pDL2-Nubx vector (Dualsystems Biotech). The Nub sequence in the pDL2-Nubx plasmid contains a point mutation (NubG) that abolishes the spontaneous association of Nub to the C-terminal half of ubiquitin (Cub). The CAD was subcloned into the pAMBV4 vector, which contains Cub fused to a chimeric transcription factor consisting of the DNA binding domain from LexA and the VP16 transactivation domain.
# As a third test for association of CAD and Orai1 in vivo, and to map the interaction domains of Orai1 we introduced both proteins into a yeast split ubiquitin interaction system. […]
# GFP-Orai1 = biological target: T1, GFP-Orai1 (Homo sapiens, UniProt Q96D31); test: Fluorescence recovery after photobleaching (FRAP) of GFP-Orai1; type: cell-based
# T1 construct: expressed in transfected cells
# Experimental: Fluorescence Recovery After Photobleaching (FRAP). Inducible HEK 293 cells were transiently transfected with mCh-CAD and maintained with 10 μM LaCl3 to suppress chronic Ca2+ entry. After 15-16 h, eGFP-myc-Orai1 expression was induced with 1 μg/ml tetracycline in medium containing LaCl3. Cells were rinsed with 2 mM Ca2+ Ringer's solution at 24 h post-transfection prior to imaging on the confocal system described above. Prebleach and recovery images were scanned at 488 nm at low power (20 mW Ar laser, 50% power, 6% transmission). A 3-μm strip was bleached at 50% laser power with full transmission for ˜2 s. Bleaching during the recovery period was negligible (<5%). FRAP recovery curves were analyzed with ImageJ (W. S. Rasband, NIH, Bethesda, Md., following a published method in which an empirical formula approximating the one-dimensional solution of the diffusion equation is fitted to the time course of fluorescence recovery within the bleached ROI. An offset was introduced to account for incomplete bleaching. The
# where I(t) is the mean intensity within the bleached region at time t, Ib is the intensity immediately after bleaching, If is the intensity after full recovery, w is the width of the bleached region, and D is the effective diffusion coefficient, was fit to the FRAP recovery curves with Igor Pro 5.0 (Wavemetrics) to determine D. Mobility was determined as (If−Ib)/(I0−Ib), where If and Ib are defined as above, and I0 is the initial intensity within the ROI after correction for the loss of whole-cell fluorescence by the bleaching pulse (˜10%).
# To test whether CAD also clusters CRAC channels in intact cells, we conducted fluorescence recovery after photobleaching (FRAP) experiments of GFP-Orai1 expressed alone or with CAD in HEK 293 cells. […] In cells co-expressing GFP-Orai1 and CAD, the mobile fraction was unchanged (87±4%) but Orai1 diffusion was slowed by a factor of two (D=0.036±0.006 μm^2/s, n=6).
# T1 sequence (Q96D31 whole entry): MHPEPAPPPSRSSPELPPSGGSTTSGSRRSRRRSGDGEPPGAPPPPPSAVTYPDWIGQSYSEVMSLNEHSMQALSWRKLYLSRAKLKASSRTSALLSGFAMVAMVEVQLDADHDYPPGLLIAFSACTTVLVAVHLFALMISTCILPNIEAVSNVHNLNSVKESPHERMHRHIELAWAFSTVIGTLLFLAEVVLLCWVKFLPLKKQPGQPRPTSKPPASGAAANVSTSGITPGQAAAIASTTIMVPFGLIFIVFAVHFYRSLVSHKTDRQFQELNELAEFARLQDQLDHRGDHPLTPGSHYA
# Chain of Orai1 (Q96D31 whole entry): as above
substance,measurement,setting,value
"CAD: 107-residue CRAC activation domain within the C-terminus of STIM1 (aa 342-448), SEQ ID NO:1",activation of NFAT-dependent luciferase reporter gene (NFAT-luc),endogenous CRAC channels,active; also recorded: necessary and sufficient to activate NFAT
same,"interaction with Orai1 (growth on His selection, b-gal)",Orai1,interact with each other
same,mobile fraction of GFP-Orai1,GFP-Orai1; HEK 293 cells co-expressing GFP-Orai1 and CAD,87±4%
same,"effective diffusion coefficient (D) of GFP-Orai1, mean","GFP-Orai1; HEK 293 cells co-expressing GFP-Orai1 and CAD, n=6",0.036±0.006 μm^2/s
same,"diffusion coefficient of eGFP-Orai1, single-cell fit",GFP-Orai1; single cell expressing eGFP-Orai1 with CAD (FIG. 6D),0.026 μm^2/s
